These are literature values, as cited in US20200129630A1, “METHODS FOR TREATING CANCER” (BicycleRD Limited, priority 2018, published 2020).

Read-outs that look alike come from different tables or passages of the source.

The conditions of data set [1]: animals, 58 to 228 mg/m^2 (0.85 and […]^2 DM1) weekly.
Assay in data set [2]: not given
The source holds these as a separate data set.

B1: Lorvotuzumab mertansine: anti-CD56 ADC with DM1, SPP cleavable linker (conjugate, chains of the INN, looked up)
VH: QVQLVESGGGVVQPGRSLRLSCAASGFTFSSFGMHWVRQAPGKGLEWVAYISSGSFTIYYADSVKGRFTISRDNSKNTLYLQMNSLRAEDTAVYYCARMRKGYAMDYWGQGTLVTVSS
VL: DVVMTQSPLSLPVTLGQPASISCRSSQIIIHSDGNTYLEWFQQRPGQSPRRLIYKVSNRFSGVPDRFSGSGSGTDFTLKISRVEAEDVGVYYCFQGSHVPHTFGQGTKVEIK
modifications: mertansine (DM1) via SPP linker
On to B1, for which, for the setting “3 consecutive days every 3 weeks”, the “Recommended Phase 2 dose (RP2D)” value was “Recommended Phase 2 dose (RP2D) was 60 mg/m^2”. The “neurosensory AEs (all grades)” value (all patients) is 17%. For the same molecule, under “in vivo”, the “Grade 3 or 4 TEAEs hyponatremia and dyspnea (each)” value is “(each 8.2%)[38]. Lorvotuzumab mertansine is currently”; the t½ result is given as “approximately 40 hours”.

B2: Cantuzumab mertansine: Anti-CanAg ADC with DM1, SPP cleavable linker (conjugate, chains of the INN, looked up)
VH: QVQLVQSGAEVKKPGETVKISCKASDYTFTYYGMNWVKQAPGQGLKWMGWIDTTTGEPTYAQKFQGRIAFSLETSASTAYLQIKSLKSEDTATYFCARRGPYNWYFDVWGQGTTVTVSS
VL: DIVMTQSPLSVPVTPGEPVSISCRSSKSLLHSNGNTYLYWFLQRPGQSPQLLIYRMSNLVSGVPDRFSGSGSGTAFTLRISRVEAEDVGVYYCLQHLEYPFTFGPGTKLELK
modifications: mertansine (DM1) via SPP linker
As to B2, the axonal degeneration result in data set [1] is recorded as “mild axonal degeneration”. Moreover, in data set [2] (IV three-times a week), the “DLT (Grade 3)” value is “transaminitis. Hepatic, hematological, and neurosensory”; the MTD entry was “three-times a week [37], The MTD was 45 mg/m^2”. Moreover, in data set [2] (every 3 weeks), the RP2D entry was “from this trial was 235 mg/m^2 every 3 weeks (~3.9 mg/m^2”. In data set [2] (in vivo), the t1/2 is 40 h. Also, in data set [2] (weekly administration), the MTD is listed as 115 mg/m^2/week (~1.9 mg/m^2/week DM1) with DLTs.
